Source: patent US9193963B2, “Mutant endoglucanase” (Toray Industries, Inc., priority 2011, dated 2015)
Residue numbers refer to the chain shown, from its start.

B1: EGIa1 Wild-type: Ignisphaera aggregans-derived endoglucanase1, SEQ ID NO: 7, parent endoglucanase (protein)
chain: MNFFVKNGEIYKLDGATGKPKIIYLFGVNWFGFETRDYVVHGLWARNWVDMLQQIKSLGFNAIRLPFCTYSVQEGTMPNSNAINYNINPDLQGLTSIEIMEKIVAKANELGIYILLDYHRLGCDQIEPLWYSDQVSEQQFIDTWVSVAKRFAKYPNVIGADIRNEPWGATWGTDDPATDWRLAVEKVAPKILEVAPHWLIFVEGTYKTRPDIDERSWYPYYSYYVFWGENLRAVRYYPVRLPYEKIVYSPHTYGPDVFRQPYFDDPIFPENMRSIWMERFGYVKTELGYALVVGEFGGRYGHGGDPRDIIWQIKFVDWLIENRICNFFYWSWNANSGDTGGILKDDWTNIWEDKYQNLKRLMDYCSSIN
modifications: Ignisphaera aggregans EGIa1
B2: EGIa1 Mutant: mutant EGIa1, SEQ ID NO: 8; residue corresponding to 273rd tryptophan substituted with alanine (protein)
chain: B1 chain with W227A
modifications: Ignisphaera aggregans EGIa1 W227A
notes: residue corresponding to 273rd tryptophan substituted with alanine
B3: EGIa2 Wild-type: Ignisphaera aggregans-derived endoglucanase 2, SEQ ID NO: 13, parent endoglucanase (protein)
chain: MYREKSCGSTIMDVYYRARGTEIYIERKGVEKPLYIFGINWAGFEWRGRVVGGLHVRNWVEILQQIKSLGFNAIRIPFCAESVKPGVFPAPRTINYALNRDLIGLDSISIMEKIIAKAAELELYILLCFHNISCLIMEPLWYTPLFSEQQFIDTWIRVAKRFSRYWNVIGAELYNNPHGRLPPSYYYESGECATWGMGNPKTDWNLAAERIGRAVLEVAPHWLIIVKGTQLTNPRSDNVPLYPEATYWGENLRAVRDYPVNLPRDKLVYGVDIYGPDVYYMPYFNDPNIFPDKLYLIWDQNWGYVKKELGYPLIIAEFGGLYGRGDPRDVIWHQKLVEYMISNNICHWFYNALNPDNPSTAGLLENDWRTVREDKMALLRRAMDYCRERYGNI
modifications: Ignisphaera aggregans EGIa2
B4: EGPh Wild-type: Pyrococcus horikoshii-derived endoglucanase, SEQ ID NO: 1, parent endoglucanase (protein)
chain: MEGNTILKIVLICTILAGLFGQVVPVYAENTTYQTPTGIYYEVRGDTIYMINVTSGEETPIHLFGVNWFGFETPNHVVHGLWKRNWEDMLLQIKSLGFNAIRLPFCTESVKPGTQPIGIDYSKNPDLRGLDSLQIMEKIIKKAGDLGIFVLLDYHRIGCTHIEPLWYTEDFSEEDFINTWIEVAKRFGKYWNVIGADLKNEPHSVTSPPAAYTDGTGATWGMGNPATDWNLAAERIGKAILKVAPHWLIFVEGTQFTNPKTDSSYKWGYNAWWGGNLMAVKDYPVNLPRNKLVYSPHVYGPDVYNQPYFGPAKGFPDNLPDIWYHHFGYVKLELGYSVVIGEFGGKYGHGGDPRDVIWQNKLVDWMIENKFCDFFYWSWNPDSGDTGGILQDDWTTIWEDKYNNLKRLMDSCSKSSSSTQSVIRSTTPTKSNTSKKICGPAILIILAVFSLLLRRAPR
modifications: Pyrococcus horikoshii EGPh
B5: EGPh Mutant: mutant EGPh, SEQ ID NO: 2; 273rd tryptophan substituted with alanine (protein)
chain: B4 chain with W273A
modifications: Pyrococcus horikoshii EGPh W273A
notes: 273rd tryptophan substituted with alanine

Test: Saccharification of lignocellulose 3 with Celluclast and endoglucanase
Format: biochemical, Rice straw
Conditions: 5 wt % Lignocellulose 3, pH 5.2, 50° C., 24 hours; 1.0 mg/mL cellulase + 0.1 mg/mL endoglucanase
Method in brief: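 Hydrothermally pretreated rice straw (180° C., 20 min) at 5 wt % in 50 mM acetate buffer pH 5.2 digested at 50° C. for 24 h with Celluclast 1.0 mg/mL plus mutant or wild-type endoglucanase 0.1 mg/mL. Released glucose measured over time.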

Point of comparison: B3, “Concentration of glucose generated, Celluclast + Wild-type” value (shortened to “Concentration … Celluclast + Wild-type”) 11 g/L. Against it:
- B1 — the same, 11 g/L
- B4 — within 1.5-fold, 12 g/L

Point of comparison: B2, “Concentration of glucose generated, Celluclast + Mutant” value (“Concentration … Celluclast + Mutant” below) 15 g/L. Against it:
- B5 — within 1.5-fold, 16 g/L

Test: Inhibition experiment with vanillin: degradation of phosphoric acid swollen cellulose
Format: biochemical
Conditions: vanillin 0 mM; enzyme 0.5 μM, 1 hour, 50° C.; parent at 0 mM = 100%

Point of comparison: B2, “Relative activity to degrade phosphoric acid swollen cellulose” value 100%. Against it:
- B1 — the same, 100%
- B3 — the same, 100%
- B4 — the same, 100%
- B5 — the same, 100%

Same assay, conditions: vanillin 5 mM; enzyme 0.5 μM, 1 hour, 50° C.; parent at 0 mM = 100%

Point of comparison: B2, “Relative activity to degrade phosphoric acid swollen cellulose” value 100%. Against it:
- B1 — lower, 60%
- B3 — lower, 50%
- B4 — lower, 40%
- B5 — lower, 95%

Same assay, conditions: vanillin 10 mM; enzyme 0.5 μM, 1 hour, 50° C.; parent at 0 mM = 100%

Point of comparison: B2, “Relative activity to degrade phosphoric acid swollen cellulose” value 100%. Against it:
- B1 — lower, 55%
- B3 — lower, 45%
- B4 — lower, 40%
- B5 — lower, 90%

Same assay, conditions: vanillin 15 mM; enzyme 0.5 μM, 1 hour, 50° C.; parent at 0 mM = 100%

Point of comparison: B4, “Relative activity to degrade phosphoric acid swollen cellulose” value 40%. Against it:
- B1 — the same, 40%
- B2 — higher, 95%
- B3 — the same, 40%
- B5 — higher, 90%

Test: Inhibition experiment with ferulic acid: degradation of phosphoric acid swollen cellulose
Format: biochemical
Conditions: ferulic acid 0 mM; enzyme 0.5 μM, 1 hour, 50° C.; parent at 0 mM = 100%

Point of comparison: B5, “Relative activity to degrade phosphoric acid swollen cellulose” value 100%. Against it:
- B1 — the same, 100%
- B2 — the same, 100%
- B3 — the same, 100%
- B4 — the same, 100%

Same assay, conditions: ferulic acid 5 mM; enzyme 0.5 μM, 1 hour, 50° C.; parent at 0 mM = 100%

Point of comparison: B1, “Relative activity to degrade phosphoric acid swollen cellulose” value 55%. Against it:
- B2 — higher, 100%
- B3 — higher, 60%
- B4 — higher, 60%
- B5 — higher, 100%

Same assay, conditions: ferulic acid 10 mM; enzyme 0.5 μM, 1 hour, 50° C.; parent at 0 mM = 100%

Point of comparison: B5, “Relative activity to degrade phosphoric acid swollen cellulose” value 100%. Against it:
- B1 — lower, 50%
- B2 — the same, 100%
- B3 — lower, 60%
- B4 — lower, 50%

Same assay, conditions: ferulic acid 15 mM; enzyme 0.5 μM, 1 hour, 50° C.; parent at 0 mM = 100%

Point of comparison: B3, “Relative activity to degrade phosphoric acid swollen cellulose” value 55%. Against it:
- B1 — lower, 50%
- B2 — higher, 95%
- B4 — lower, 50%
- B5 — higher, 95%

Test: Saccharification of lignocellulose 3 with Trichoderma reesei culture solution and endoglucanase
Format: biochemical, Rice straw
Conditions: Lignocellulose 3, 24 hours; cellulase 1.0 mg/mL + endoglucanase 0.1 mg/mL + β-glucosidase (Novozyme 188) 0.01 mg/mL
Method in brief: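 Hydrothermally treated rice straw (180 °C, 20 min, 10 MPa; solid fraction) suspended at 5 wt % in 50 mM acetate buffer pH 5.2, hydrolysed 24 h at 50 °C. Enzymes: T. reesei culture-solution cellulase 1.0 mg/mL, mutant or wild-type endoglucanase 0.1 mg/mL, β-glucosidase 0.01 mg/mL; glucose generated measured.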

Point of comparison: B4, “Concentration of glucose generated, Culture solution + Wild-type” value (shortened to “Concentration … Culture solution + Wild-type”) 10 g/L. Against it:
- B1 — within 1.5-fold, 8 g/L
- B3 — within 1.5-fold, 8 g/L

Point of comparison: B2, “Concentration of glucose generated, Culture solution + Mutant” value (from here on “Concentration … Culture solution + Mutant”) 12 g/L. Against it:
- B5 — within 1.5-fold, 13 g/L

Test: Activity to degrade phosphoric acid swollen cellulose
Format: biochemical
Conditions: 1% phosphoric acid swollen cellulose, pH 5.2, enzyme 0.5 μM, 1 hour, 50° C.; glucose generated by each parent endoglucanase = 100%
Method in brief: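 Enzyme added to phosphoric acid swollen cellulose in 50 mM acetate buffer, pH 5.2; 1 h reaction at 30–85 °C, stopped by pH change if needed. Glucose released measured by glucose kit; activity expressed relative to parent endoglucanase set at 100%.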

Point of comparison: B1, Relative activity 100%. Against it:
- B2 — the same, 100%
- B3 — the same, 100%
- B4 — the same, 100%
- B5 — the same, 100%

Same assay, conditions: Comparative Example 2, technique similar to Example 3; parent endoglucanase = 100%

For B4, the Relative activity was 100%.

Test: Saccharification of lignocellulose 2 with Celluclast and endoglucanase
Format: biochemical, Rice straw
Conditions: 5 wt % Lignocellulose 2, pH 5.2, 50° C., 24 hours; 1.0 mg/mL cellulase + 0.1 mg/mL endoglucanase
Method in brief: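 Dilute-sulfuric-acid-pretreated rice straw (10 wt% solids, pH ~5) suspended at 5 wt% in 50 mM acetate buffer pH 5.2 was digested 24 h at 50 °C with 1.0 mg/mL Trichoderma reesei Celluclast plus 0.1 mg/mL mutant or wild-type endoglucanase; glucose released was measured.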

Point of comparison: B4, “Concentration … Celluclast + Wild-type” value 11 g/L. Against it:
- B1 — within 1.5-fold, 12 g/L
- B3 — the same, 11 g/L

Point of comparison: B2, “Concentration … Celluclast + Mutant” value 15 g/L. Against it:
- B5 — the same, 15 g/L

Test: Saccharification of lignocellulose 1 with Celluclast and endoglucanase
Format: biochemical, Rice straw
Conditions: 5 wt % Lignocellulose 1, pH 5.2, 50° C., 24 hours; 1.0 mg/mL cellulase + 0.1 mg/mL endoglucanase
Method in brief: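 Rice straw pretreated with liquid ammonia (15 min room temperature, then 1 h at 150° C), suspended at 5 wt % in 50 mM acetate pH5.2. Hydrolysed at 50° C for 24 h with 1.0 mg/mL Trichoderma reesei cellulase plus 0.1 mg/mL mutant or wild-type endoglucanase; glucose measured.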

Point of comparison: B4, “Concentration … Celluclast + Wild-type” value 12 g/L. Against it:
- B1 — within 1.5-fold, 11 g/L
- B3 — within 1.5-fold, 11 g/L

Point of comparison: B5, “Concentration … Celluclast + Mutant” value 16 g/L. Against it:
- B2 — within 1.5-fold, 15 g/L

Test: Saccharification of lignocellulose 2 with Trichoderma reesei culture solution and endoglucanase
Format: biochemical, Rice straw
Conditions: Lignocellulose 2, 24 hours; cellulase 1.0 mg/mL + endoglucanase 0.1 mg/mL + β-glucosidase (Novozyme 188) 0.01 mg/mL
Method in brief: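 Dilute-sulfuric-acid-autoclaved rice straw (pH ~5) suspended at 5 wt % in 50 mM acetate pH 5.2, hydrolysed 24 h at 50 °C. Enzymes: T. reesei culture solution 1.0 mg/mL, mutant or wild-type endoglucanase 0.1 mg/mL, β-glucosidase 0.01 mg/mL. Glucose released was measured.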

Point of comparison: B1, “Concentration … Culture solution + Wild-type” value 9 g/L. Against it:
- B3 — within 1.5-fold, 8 g/L
- B4 — within 1.5-fold, 8 g/L

Point of comparison: B5, “Concentration … Culture solution + Mutant” value 12 g/L. Against it:
- B2 — the same, 12 g/L

Test: Saccharification of lignocellulose 1 with Trichoderma reesei culture solution and endoglucanase
Format: biochemical, Rice straw
Conditions: Lignocellulose 1, 24 hours; cellulase 1.0 mg/mL + endoglucanase 0.1 mg/mL + β-glucosidase (Novozyme 188) 0.01 mg/mL
Method in brief: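 Substrate was liquid-ammonia-treated rice straw (1 h, 150 °C), suspended at 5 wt % in 50 mM acetate buffer pH 5.2 and hydrolysed for 24 h at 50 °C. Enzymes: T. reesei culture solution 1.0 mg/mL, mutant or wild-type endoglucanase 0.1 mg/mL, β-glucosidase 0.01 mg/mL. Glucose released was measured.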

Point of comparison: B1, “Concentration … Culture solution + Wild-type” value 8 g/L. Against it:
- B3 — the same, 8 g/L
- B4 — within 1.5-fold, 9 g/L

Point of comparison: B5, “Concentration … Culture solution + Mutant” value 13 g/L. Against it:
- B2 — within 1.5-fold, 12 g/L
